Measured values published in the RNAGym collection of RNA variant scans (doi:10.7554/elife.90254).

B1: LINE1-mini (parent)
chain: GGCAGAGCUCAACACAGCGUGGCAAAGUGGCUGUGGCUAGACUGCC

Variants of: B1
Experiment: self-cleavage, relative activity (ratio to wild type); higher = more cleavage; in vitro, sequencing; the parent is a self-cleaving ribozyme

Row | Variant | self-cleavage
1 | GGCAGAGCUCAAUACAGCGUGGCAAAGUGGCUGCGGCUAGACUGCC | 0.14
2 | GGCAGAGCUCAAUACAGCGUGGCAAAGUGGCUGGGGCUAGACUGCC | 0.05
3 | GGCAGAGCUCAAUACAGCGUGGCAAAGUGGCUGAGGCUAGACUGCC | 0.09
4 | GGCAGAGCUCAACCCAGCGUGGCAAAGUGGCUGUGGCUAGGCUGCC | 0.05
5 | GGCAGAGCUCAACCCAGCGUGGCAAAGUGGCUGUGGCUAGUCUGCC | 0.06
6 | GGCAGAGCUCAACCCAGCGUGGCAAAGUGGCUGUGGCUAGCCUGCC | 0.04
7 | GGCAGAGCUCAAUACAGCGUGGCAAAGUGGCUGUGGCUAGACUGAC | 0.05
8 | GGCAGAGCUCAAUACAGCGUGGCAAAGUGGCUGUGGCUAGACUGGC | 0.06
9 | GGCAGAGCUCAAUACAGCGUGGCAAAGUGGCUGUGGCUAGACUGUC | 0.13
10 | GGCAGAGCUCAACCCAGCGUGGCAAAGUGGCUGUGGCUAGACUGCC | 0.12
11 | GGCAGAGCUCAACCCAGCGUGGCAAAGUGGCUGUGGGUAGACUGCC | 0.11
12 | GGCAGAGCUCAACCCAGCGUGGCAAAGUGGCUGUGGAUAGACUGCC | 0.08
13 | GGCAGAGCUCAAUACAGCGUAGCAAAGUGGCUGUGGCUAGACUGCC | 0.22
14 | GGCAGAGCUCAAUACAGCGUCGCAAAGUGGCUGUGGCUAGACUGCC | 0.25
15 | GGCAGAGCUCAAUACAGCGUUGCAAAGUGGCUGUGGCUAGACUGCC | 0.18
16 | GGCAGAGCUCAACCCAGCGUGGCAAUGUGGCUGUGGCUAGACUGCC | 0.09
17 | GGCAGAGCUCAACCCAGCGUGGCAACGUGGCUGUGGCUAGACUGCC | 0.16
18 | GGCAGAGCUCAACCCAGCGUGGCAAGGUGGCUGUGGCUAGACUGCC | 0.06
19 | GGCAGAGCUCAACCCAGCGUGGCAUAGUGGCUGUGGCUAGACUGCC | 0.09
20 | GGCAGAGCUCAACCCAGCGUGGCACAGUGGCUGUGGCUAGACUGCC | 0.07
21 | GGCAGAGCUCAACCCAGCGUGGCAGAGUGGCUGUGGCUAGACUGCC | 0.07
22 | GGCAGAGCUCAACCCUGCGUGGCAAAGUGGCUGUGGCUAGACUGCC | 0.12
23 | GGCAGAGCUCAACCCCGCGUGGCAAAGUGGCUGUGGCUAGACUGCC | 0.08

Row | Variant | self-cleavage
24 | GGCAGAGCUCAACCCGGCGUGGCAAAGUGGCUGUGGCUAGACUGCC | 0.1
25 | GGCAGAGCUCAAUACAGCGUGGCAAAGUGGCUGUAGCUAGACUGCC | 0.71
26 | GGCAGAGCUCAAUACAGCGUGGCAAAGUGGCUGUCGCUAGACUGCC | 0.22
27 | GGCAGAGCUCAAUACAGCGUGGCAAAGUGGCUGUUGCUAGACUGCC | 0.18
28 | GGCAGAGCUCAACCCAGCGUGGCAAAGUGGCUGUGGCUGGACUGCC | 0.04
29 | GGCAGAGCUCAACCCAGCGUGGCAAAGUGGCUGUGGCUCGACUGCC | 0.04
30 | GGCAGAGCUCAACCCAGCGUGGCAAAGUGGCUGUGGCUUGACUGCC | 0.07
31 | GGCAGAGCUCAAUACAGCGUGGCAAAGUGGGUGUGGCUAGACUGCC | 0.08
32 | GGCAGAGCUCAAUACAGCGUGGCAAAGUGGAUGUGGCUAGACUGCC | 0.05
33 | GGCAGAGCUCAAUACAGCGUGGCAAAGUGGUUGUGGCUAGACUGCC | 0.12
34 | GGCAGAGCUCAAUACAGCGUGGCAAAAUGGCUGUGGCUAGACUGCC | 0.17
35 | GGCAGAGCUCAAUACAGCGUGGCAAACUGGCUGUGGCUAGACUGCC | 0.06
36 | GGCAGAGCUCAAUACAGCGUGGCAAAUUGGCUGUGGCUAGACUGCC | 0.17
37 | GGCAGAGCUCAAUACAGCGUGGCAAAGUGCCUGUGGCUAGACUGCC | 0.09
38 | GGCAGAGCUCAAUACAGCGUGGCAAAGUGUCUGUGGCUAGACUGCC | 0.15
39 | GGCAGAGCUCAAUACAGCGUGGCAAAGUGACUGUGGCUAGACUGCC | 0.15
40 | GGCAGAGCUCAACCCAGCGUGGCUAAGUGGCUGUGGCUAGACUGCC | 0.07
41 | GGCAGAGCUCAACCCAGCGUGGCGAAGUGGCUGUGGCUAGACUGCC | 0.07
42 | GGCAGAGCUCAACCCAGCGUGGCCAAGUGGCUGUGGCUAGACUGCC | 0.11
43 | GGCAGAGCUCAACCCAGCGUGGAAAAGUGGCUGUGGCUAGACUGCC | 0.21
44 | GGCAGAGCUCAACCCAGCGUGGUAAAGUGGCUGUGGCUAGACUGCC | 0.12
45 | GGCAGAGCUCAACCCAGCGUGGGAAAGUGGCUGUGGCUAGACUGCC | 0.11
46 | GGCAGAGCUCAACCCAGCGUGGCAAAGUGGAUGUGGCUAGACUGCC | 0.07

Row | Variant | self-cleavage
47 | GGCAGAGCUCAACCCAGCGUGGCAAAGUGGUUGUGGCUAGACUGCC | 0.02
48 | GGCAGAGCUCAACCCAGCGUGGCAAAGUGGGUGUGGCUAGACUGCC | 0.03
49 | GGCAGAGCUCAAUACAGCGUGGCAAAGUGGCAGUGGCUAGACUGCC | 0.11
50 | GGCAGAGCUCAAUACAGCGUGGCAAAGUGGCGGUGGCUAGACUGCC | 0.21
51 | GGCAGAGCUCAAUACAGCGUGGCAAAGUGGCCGUGGCUAGACUGCC | 0.08
52 | GGCAGAGCUCAAUACAGCGUGGCAAAGUGGCUGUGGCUAGACCGCC | 0.1
53 | GGCAGAGCUCAAUACAGCGUGGCAAAGUGGCUGUGGCUAGACGGCC | 2.25
54 | GGCAGAGCUCAAUACAGCGUGGCAAAGUGGCUGUGGCUAGACAGCC | 0.1
55 | GGCAGAGCUCAACCCAGUGUGGCAAAGUGGCUGUGGCUAGACUGCC | 0.07
56 | GGCAGAGCUCAACCCAGGGUGGCAAAGUGGCUGUGGCUAGACUGCC | 0.05
57 | GGCAGAGCUCAACCCAGAGUGGCAAAGUGGCUGUGGCUAGACUGCC | 0.05
58 | GGCAGAGCUCAAUACAGCGUGGCAAAGUGGCUGUGGCAAGACUGCC | 0.04
59 | GGCAGAGCUCAAUACAGCGUGGCAAAGUGGCUGUGGCCAGACUGCC | 0.1
60 | GGCAGAGCUCAAUACAGCGUGGCAAAGUGGCUGUGGCGAGACUGCC | 0.02
61 | GGCAGAGCUCAAUACAGCGUGGCAAAGUGGCUGUGGCUACACUGCC | 0.08
62 | GGCAGAGCUCAAUACAGCGUGGCAAAGUGGCUGUGGCUAAACUGCC | 0.1
63 | GGCAGAGCUCAAUACAGCGUGGCAAAGUGGCUGUGGCUAUACUGCC | 0.09
64 | GGCAGAGCUCAAUACAGCGUGGCAAAGUGGCUGUGCCUAGACUGCC | 0.11
65 | GGCAGAGCUCAAUACAGCGUGGCAAAGUGGCUGUGUCUAGACUGCC | 0.15
66 | GGCAGAGCUCAAUACAGCGUGGCAAAGUGGCUGUGACUAGACUGCC | 0.63
67 | GGCAGAGCUCAAUACAGCGUGGCAAAGUUGCUGUGGCUAGACUGCC | 0.21
68 | GGCAGAGCUCAAUACAGCGUGGCAAAGUAGCUGUGGCUAGACUGCC | 0.28
69 | GGCAGAGCUCAAUACAGCGUGGCAAAGUCGCUGUGGCUAGACUGCC | 0.09

Row | Variant | self-cleavage
70 | GGCAGAGCUCAAUACAGCGUGGCAAAGUGGCUGUGGCUAGUCUGCC | 0.15
71 | GGCAGAGCUCAAUACAUCGUGGCAAAGUGGCUGUGGCUAGACUGCC | 0.12
72 | GGCAGAGCUCAAUACAACGUGGCAAAGUGGCUGUGGCUAGACUGCC | 0.1
73 | GGCAGAGCUCAAUACACCGUGGCAAAGUGGCUGUGGCUAGACUGCC | 0.11
74 | GGCAGAGCUCAAUAAAGCGUGGCAAAGUGGCUGUGGCUAGACUGCC | 0.08
75 | GGCAGAGCUCAAUAUAGCGUGGCAAAGUGGCUGUGGCUAGACUGCC | 0.13
76 | GGCAGAGCUCAAUAGAGCGUGGCAAAGUGGCUGUGGCUAGACUGCC | 0.08
77 | GGCAGAGCUCAAUACAGCGUGGCAAAGUGGCUGUGGAUAGACUGCC | 0.27
78 | GGCAGAGCUCAAUACAGCGUGGCAAAGUGGCUGUGGUUAGACUGCC | 0.11
79 | GGCAGAGCUCAAUACAGCGUGGCAAAGUGGCUGUGGGUAGACUGCC | 0.1
80 | GGCAGAGCUCAAUACAGCGUGGCAAAGUGGCUGUGGCUAGAUUGCC | 0.09
81 | GGCAGAGCUCAAUACAGCGUGGCAAAGUGGCUGUGGCUAGAAUGCC | 0.09
82 | GGCAGAGCUCAAUACAGCGUGGCAAAGUGGCUGUGGCUAGAGUGCC | 0.08
83 | GGCAGAGCUCAAUACAGCGAGGCAAAGUGGCUGUGGCUAGACUGCC | 0.17
84 | GGCAGAGCUCAAUACAGCGGGGCAAAGUGGCUGUGGCUAGACUGCC | 0.1
85 | GGCAGAGCUCAAUACAGCGCGGCAAAGUGGCUGUGGCUAGACUGCC | 0.09
86 | GGCAGAGCUCAACCUAGCGUGGCAAAGUGGCUGUGGCUAGACUGCC | 0.07
87 | GGCAGAGCUCAACCAAGCGUGGCAAAGUGGCUGUGGCUAGACUGCC | 0.08
88 | GGCAGAGCUCAACCGAGCGUGGCAAAGUGGCUGUGGCUAGACUGCC | 0.02
89 | GGCAGAGCUCAAUACAGCGUGCCAAAGUGGCUGUGGCUAGACUGCC | 0.1
90 | GGCAGAGCUCAAUACAGCGUGUCAAAGUGGCUGUGGCUAGACUGCC | 0.32
91 | GGCAGAGCUCAAUACAGCGUGACAAAGUGGCUGUGGCUAGACUGCC | 0.13
92 | GGCAGAGCUCAAUACAGCGUGGCAAAGCGGCUGUGGCUAGACUGCC | 0.28

Row | Variant | self-cleavage
93 | GGCAGAGCUCAAUACAGCGUGGCAAAGGGGCUGUGGCUAGACUGCC | 0.08
94 | GGCAGAGCUCAAUACAGCGUGGCAAAGAGGCUGUGGCUAGACUGCC | 0.49
95 | GGCAGAGCUCAAUACAGCGUGGCAAAGUGGCUGUGGCUAGACUACC | 0.1
96 | GGCAGAGCUCAAUACAGCGUGGCAAAGUGGCUGUGGCUAGACUUCC | 0.1
97 | GGCAGAGCUCAAUACAGCGUGGCAAAGUGGCUGUGGCUAGACUCCC | 0.06
98 | GGCAGAGCUCAAUACAGCGUGGUAAAGUGGCUGUGGCUAGACUGCC | 0.22
99 | GGCAGAGCUCAAUACAGCGUGGGAAAGUGGCUGUGGCUAGACUGCC | 0.06
100 | GGCAGAGCUCAAUACAGCGUGGAAAAGUGGCUGUGGCUAGACUGCC | 0.26
101 | GGCAGAGCUCAAUACAGCGUGGCAAAGUGGCUCUGGCUAGACUGCC | 0.06
102 | GGCAGAGCUCAAUACAGCGUGGCAAAGUGGCUAUGGCUAGACUGCC | 0.07
103 | GGCAGAGCUCAAUACAGCGUGGCAAAGUGGCUUUGGCUAGACUGCC | 0.06
104 | GGCAGAGCUCAAUACAGGGUGGCAAAGUGGCUGUGGCUAGACUGCC | 0.05
105 | GGCAGAGCUCAAUACAGUGUGGCAAAGUGGCUGUGGCUAGACUGCC | 0.12
106 | GGCAGAGCUCAAUACAGAGUGGCAAAGUGGCUGUGGCUAGACUGCC | 0.07
107 | GGCAGAGCUCAAUACAGCGUGGCAAAGUGGCUGUGGCUAGACUGCG | 0.09
108 | GGCAGAGCUCAAUACAGCGUGGCAAAGUGGCUGUGGCUAGACUGCU | 0.3
109 | GGCAGAGCUCAAUACAGCGUGGCAAAGUGGCUGUGGCUAGACUGCA | 0.22
110 | GGCAGAGCUCAAUACAGCAUGGCAAAGUGGCUGUGGCUAGACUGCC | 0.16
111 | GGCAGAGCUCAAUACAGCUUGGCAAAGUGGCUGUGGCUAGACUGCC | 0.23
112 | GGCAGAGCUCAAUACAGCCUGGCAAAGUGGCUGUGGCUAGACUGCC | 0.07
